Reference: patent publication US20210253716A1 (Regeneron, published 2021)
Changes are numbered by the printed parent chain.

Legend:
[1] = biological target: T1, full length human ACVR1 (R206H) on HEK293/BRE-luc/hACVR1-R206H-clone H2 cells (human, UniProt Q04771 21-509); assay: cell-based or functional assay
T1 sequence: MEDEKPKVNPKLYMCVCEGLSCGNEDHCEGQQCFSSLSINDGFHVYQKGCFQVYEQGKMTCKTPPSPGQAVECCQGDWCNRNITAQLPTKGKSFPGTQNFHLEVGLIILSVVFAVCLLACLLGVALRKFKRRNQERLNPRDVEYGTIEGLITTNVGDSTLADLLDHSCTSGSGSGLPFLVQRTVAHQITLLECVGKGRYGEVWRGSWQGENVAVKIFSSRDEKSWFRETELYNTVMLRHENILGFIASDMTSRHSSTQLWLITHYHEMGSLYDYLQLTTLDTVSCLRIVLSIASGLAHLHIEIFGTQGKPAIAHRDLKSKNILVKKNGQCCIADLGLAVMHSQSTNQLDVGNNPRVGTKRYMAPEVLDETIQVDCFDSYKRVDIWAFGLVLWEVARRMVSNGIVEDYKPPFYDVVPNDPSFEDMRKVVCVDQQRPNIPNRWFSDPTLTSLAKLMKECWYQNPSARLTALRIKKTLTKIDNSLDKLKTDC

[2] = biological target: T2, human ACVR1 extracellular domain expressed with a C-terminal mouse IgG2a Fc tag (human); assay: SPR (Biacore), mAb captured, 25 C
T2 construct: also called hACVR1-mFc
T2 chain: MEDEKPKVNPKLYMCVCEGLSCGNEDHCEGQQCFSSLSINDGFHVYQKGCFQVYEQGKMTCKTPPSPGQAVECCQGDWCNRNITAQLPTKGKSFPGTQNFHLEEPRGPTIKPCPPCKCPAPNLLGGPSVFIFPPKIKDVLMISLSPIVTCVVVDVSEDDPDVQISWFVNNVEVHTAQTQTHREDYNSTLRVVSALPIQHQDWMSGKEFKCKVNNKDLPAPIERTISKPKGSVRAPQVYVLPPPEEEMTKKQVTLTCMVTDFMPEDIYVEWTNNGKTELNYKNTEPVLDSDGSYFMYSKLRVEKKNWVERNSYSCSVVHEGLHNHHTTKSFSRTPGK
Experimental: (§1) Equilibrium dissociation constants (KD) for ACVR1 binding to purified anti-ACVR1 monoclonal antibodies were determined using a real-time surface plasmon resonance biosensor (SPR-Biacore), Biacore 4000. All binding studies were performed in 10 mM HEPES, 150 mM NaCl, 3 mM EDTA, and 0.05% v/v surfactant Tween-20, pH 7.4 (HBS-ET) running buffer at 25° C. and 37° C. The Biacore CM5 sensor surface was first derivatized by amine coupling with a monoclonal mouse anti-human Fc antibody (GE, #BR-1008-39 or REGN2567) to capture anti-ACVR1 monoclonal antibodies. […] ACVR1 reagents were then injected over anti-human Fc captured anti-ACVR1 monoclonal antibody surface for 2.5-3 minutes at a flow rate of 30 μL/minute, while the dissociation of monoclonal antibody bound ACVR1 reagent was monitored for 10-15 minutes in HBS-ET running buffer. Kinetic association rate constant (kₐ) and dissociation rate constant (kd) were determined by fitting the real-time sensorgrams to a 1:1 binding model using Scrubber 2.0c curve-fitting software. Binding dissociation equilibrium constants (KD) and dissociative half-lives (t½) were calculated from the kinetic rate constants as: […]

[3] = biological target: T3, mouse ACVR1 extracellular domain expressed with a C-terminal myc-myc-hexahistidine tag (mouse); assay: SPR (Biacore), mAb captured, 25 C
T3 construct: also called mACVR1-MMH; mACVR1-mmh
T3 chain: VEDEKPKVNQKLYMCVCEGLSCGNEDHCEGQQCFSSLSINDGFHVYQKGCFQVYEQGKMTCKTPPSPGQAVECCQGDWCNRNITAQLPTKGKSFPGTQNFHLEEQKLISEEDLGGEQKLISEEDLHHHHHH
Experimental: as §1

[4] = biological target: T4, human ACVR1 extracellular domain expressed with a C-terminal myc-myc-hexahistidine tag (human); assay: SPR (Biacore), mAb captured, 37 C; 37 C
T4 construct: also called hACVR1-MMH
T4 chain: T3 chain with V1M, Q10P
Experimental: as §1

[5] = biological target: T1, full length human ACVR1 (R206H) on …; assay: flow cytometry, 70 nM antibody, HEK293/hACVR1-R206H cells
Experimental: (§2) Cells were fixed using BD CytoFix™ (Becton Dickinson, #554655) and analyzed on either Hypercyt® or IQue® Flow Cytometers (Intellicyt®). Unstained and secondary antibody alone controls were also tested for all cell lines. The results were analyzed using ForeCyt® (IntelliCyt®) software to determine the geometric means of fluorescence for viable cells and binding ratios were calculated by normalizing the geometric mean value of the test condition by the geometric mean value of the corresponding unstained cells.

[6] = biological target: T2, human ACVR1 extracellular domain …; assay: SPR (Biacore), mAb captured, 37 C
Experimental: as §1

[7] = biological target: T3, mouse ACVR1 extracellular domain …; assay: SPR (Biacore), mAb captured, 37 C
Experimental: as §1

[8] = biological target: T1, full length human ACVR1 (R206H) on …; assay: flow cytometry, 66.6 nM antibody, HEK293/hACVR1-R206H cells
Experimental: as §2

[9] = biological target: T4, human ACVR1 extracellular domain …; assay: SPR (Biacore), mAb captured, 25 C
Experimental: as §1

[10] = biological target: T5, full length wild type human ACVR1 on HEK293/BRE-luc/hACVR1-wild type cells (human, UniProt Q04771 21-509); assay: flow cytometry, 66.6 nM antibody, HEK293/hACVR1-wt cells
T5 construct: also called HEK293/hACVR1-wt; hACVR1-wt
T5 sequence: T1 sequence with H186R
Experimental: as §2

[11] = biological target: T4, human ACVR1 extracellular domain …; assay: SPR (Biacore), mAb captured, 37 C
Experimental: as §1

[12] = biological target: T3, mouse ACVR1 extracellular domain …; assay: SPR (Biacore), mAb captured, 25 C; 25 C
Experimental: as §1

B1: mAb27400 (antibody, human IgG4 S228P, kappa, V domains shown)
VH: EMQLVESGGGLVQPGGSLKVSCAASGFTLSDSSIHWVRQASGKGLEWIGRIRSKPYSYATAYAASVKGRFTISRDDSKNTAFLQMSGLKTEDTAVYYCTGGDDFWGQGTLVTVSS
VL: DIQMTQSPSTLSASVGDRITITCRASQSISTWLAWYQQKPGKAPKLLIYKASSLEGGVPSRFSGSGSGTDFTLTISSLQPDDFATYYCQQYNTYWTFGQGTKVEIKR
With B1 the “% Inhibition, BRE-luc reporter, 2 nM hBMP7” value [1] was 96%, the “IC50 [M], BRE-luc reporter, 2 nM hBMP7” value [1] was 2e-09 M and the “100 nM Ag Bound (RU)” value [2] was 24 RU. For the same binder, the Kd [2] was 11.9 nM, the koff [2] was 0.000142 s⁻¹ and the kon [2] was 11900 M⁻¹ s⁻¹. For the same binder, the t½ [2] was 81 min, the “900 nM or 100 nM Ag Bound (RU)” value [3] was -3 RU and the Kd [4] was 49 nM. The koff [4] was 0.000476 s⁻¹, the kon [4] was 9710 M⁻¹ s⁻¹ and the t½ [4] was 24 min. For the same binder, the “MFI - Normalized to Unstained Control” value [5] was 840 fold, the “100 nM Ag Bound (RU)” value [6] was 68 RU and the Kd [6] was 12.8 nM. The koff [6] was 0.000163 s⁻¹, the kon [6] was 12700 M⁻¹ s⁻¹ and the t½ [6] was 71 min. For the same binder, the “900 nM or 100 nM Ag Bound (RU)” value [7] was 2 RU.

B2: mAb22115 (antibody, human IgG4 S228P, kappa, V domains shown)
VH: EVQLVESGGGLVQPGGSLRLSCAASGFTSSRYWMSWVRQAPGKGLEWLANINQDGSEKYYLESLRGRFTISRDNAKNSLYLQMNNLRAEDTAVYYCARDEEGYWGQGTLVTVSS
VL: DVVMTQSLLSLSVTLGQPASISCRSSQSLVYSDGDTYLSWFQQRPGQSPRRLIYKVSHRDSGVPDRFRGSGSGTDFTLKISRVEAEDVGIYYCMQGTHWPPTFGQGTKVEIKR
With B2 the “MFI - Normalized to Unstained Control” value [8] was 4 fold, the “100 nM Ag Bound (RU)” value [2] was 264 RU and the Kd [2] was 11.4 nM. For the same binder, the koff [2] was 0.000765 s⁻¹, the kon [2] was 66900 M⁻¹ s⁻¹ and the t½ [2] was 15 min. The “900 nM or 100 nM Ag Bound (RU)” value [3] was 94 RU, the Kd [3] was 171 nM and the koff [3] was 0.00478 s⁻¹. For the same binder, the kon [3] was 28000 M⁻¹ s⁻¹, the t½ [3] was 2.4 min and the “900 nM or 100 nM Ag Bound (RU)” value [9] was 93 RU. It also gave a Kd [9] of 145 nM, a koff [9] of 0.00485 s⁻¹ and a kon [9] of 33400 M⁻¹ s⁻¹. The t½ [9] was 2.4 min, the “MFI - Normalized to Unstained Control” value [10] was 4 fold and the “100 nM Ag Bound (RU)” value [6] was 317 RU. The Kd [6] was 30.1 nM, the koff [6] was 0.0025 s⁻¹ and the kon [6] was 83300 M⁻¹ s⁻¹. The t½ [6] was 4.6 min, the “900 nM or 100 nM Ag Bound (RU)” value [7] was 85 RU and the Kd [7] was 504 nM. For the same binder, the koff [7] was 0.0297 s⁻¹, the kon [7] was 58900 M⁻¹ s⁻¹ and the t½ [7] was 0.39 min. For the same binder, the “900 nM or 100 nM Ag Bound (RU)” value [11] was 86 RU, the Kd [11] was 438 nM and the koff [11] was 0.0308 s⁻¹. For the same binder, the kon [11] was 70400 M⁻¹ s⁻¹ and the t½ [11] was 0.37 min.

B3: mAb22125 (antibody, human IgG4 S228P, kappa, V domains shown)
VH: QVQLVQSGAEVKKPGASVKVSCKASGYTFTGYYMHWVRQAPGQGLEWMGWINPNSVGTNFAQKFQGRVTMTRDTSISTAYMELSRLRSDDTAVYYCTRDGAAAGLFDYWGQGTLVTVSS
VL: DIQMTQSPSSLSASVGDRVTITCRASQGINNYLAWYQQKPGKVPKLLIYAASTLQSGVPSRFSGSGSGTDFTLTISSLQPEDVATYYCQKFNSAPLTFGGGTKVEIKR
With B3 the “MFI - Normalized to Unstained Control” value [8] was 235 fold, the “IC50 [M], BRE-luc reporter, 3 nM hActivin A” value [1] was 1.9e-08 M and the “IC50 [M], BRE-luc reporter, 3 nM hBMP7” value [1] was 1.6e-08 M. For the same binder, the “100 nM Ag Bound (RU)” value [2] was 268 RU, the Kd [2] was 12.3 nM and the koff [2] was 0.00802 s⁻¹. The kon [2] was 652000 M⁻¹ s⁻¹, the t½ [2] was 1.4 min and the “900 nM or 100 nM Ag Bound (RU)” value [3] was 41 RU. For the same binder, the Kd [3] was 836 nM, the koff [3] was 0.575 s⁻¹ and the kon [3] was 688000 M⁻¹ s⁻¹. The t½ [3] was 0.02 min, the “900 nM or 100 nM Ag Bound (RU)” value [9] was 44 RU and the Kd [9] was 1020 nM. The koff [9] was 0.42 s⁻¹, the kon [9] was 413000 M⁻¹ s⁻¹ and the t½ [9] was 0.03 min. The “MFI - Normalized to Unstained Control” value [10] was 183 fold, the “100 nM Ag Bound (RU)” value [6] was 243 RU and the Kd [6] was 79.2 nM. The koff [6] was 0.0577 s⁻¹, the kon [6] was 729000 M⁻¹ s⁻¹ and the t½ [6] was 0.2 min. For the same binder, the “900 nM or 100 nM Ag Bound (RU)” value [7] was 23 RU and the “900 nM or 100 nM Ag Bound (RU)” value [11] was 25 RU.

B4: mAb27242 (antibody, human IgG4 S228P, kappa, V domains shown)
VH: QVQLQQWGAGLLKPSETLSLTCAVYNGSFSSFYWSWIRQPPGKGLEWLGEINHRGRTNNNPSLASRVTISVDTSKSQFSLRLTSVTAADTATYYCTAHTRGFLYWGQGTRVTVSS
VL: DIQMTQSPSSLSASVGDRVTITCQASQDINNYLNWYQQKPGQAPNLLIYDVFNLLPGVPSRFSGSGSGTDFSFTISSLQPEDIATYYCQHYDDLPLTFGGGTTVAIRR
With B4 the “% Inhibition, BRE-luc reporter, 2 nM hBMP7” value [1] was 109%, the “IC50 [M], BRE-luc reporter, 2 nM hBMP7” value [1] was 1.2e-09 M and the “100 nM Ag Bound (RU)” value [2] was 199 RU. It also gave a Kd [2] of 0.202 nM, a koff [2] of 2.9e-05 s⁻¹ and a kon [2] of 144000 M⁻¹ s⁻¹. For the same binder, the t½ [2] was 398 min, the “900 nM or 100 nM Ag Bound (RU)” value [9] was 63 RU and the Kd [9] was 1.56 nM. It also gave a koff [9] of 0.000135 s⁻¹, a kon [9] of 86800 M⁻¹ s⁻¹ and a t½ [9] of 86 min. The Kd [12] was 602 nM, the koff [12] was 0.144 s⁻¹ and the kon [12] was 238000 M⁻¹ s⁻¹. For the same binder, the t½ [12] was 0.08 min, the “MFI - Normalized to Unstained Control” value [5] was 1730 fold and the “100 nM Ag Bound (RU)” value [6] was 250 RU. The Kd [6] was 0.669 nM, the koff [6] was 0.000189 s⁻¹ and the kon [6] was 282000 M⁻¹ s⁻¹. For the same binder, the t½ [6] was 61 min, the “900 nM or 100 nM Ag Bound (RU)” value [11] was 82 RU and the Kd [11] was 5.77 nM. The koff [11] was 0.00083 s⁻¹, the kon [11] was 144000 M⁻¹ s⁻¹ and the t½ [11] was 14 min.
